Experimental data: FireProtDB
Numbering of substitutions follows the chain as printed. “And” between values parts separate entries of the source, which are not always exact repeats. Equal entries are not always repeated.

Conditions: whole UniProt chain shown
[1] = Homo sapiens, pH 7.5, 0 °C, GdnHCl, CD, Na2HPO4 5 mM, transition: 2, reversible: No
[2] = Mus musculus, pH 2, Thermal, DSC, Potassium phosphate 40 mM, reversible: yes
[3] = Mus musculus, pH 2.7, Thermal, DSC, Potassium phosphate 40 mM, reversible: yes
[4] = Mus musculus, pH 7, Thermal, DSC, Potassium phosphate 40 mM, reversible: yes
[5] = Homo sapiens, pH 7.8, Thermal, DSC, Potassium phosphate 2 mM, reversible: yes
[6] = Homo sapiens, pH 8, Thermal, CD, Tris-HCl 10 mM
[7] = Hordeum vulgare, pH 6.3, 25 °C, GdnHCl, DSC, MES-NaOH 50 mM, reversible: yes
[8] = Hordeum vulgare, pH 6.3, 25 °C, GdnHCl, Fluorescence, Sodium phosphate 20 mM
[9] = Hordeum vulgare, pH 7, 25 °C, GdnHCl, CD, Sodium phosphate 10 mM, reversible: yes
[10] = Hordeum vulgare, pH 7, 30 °C, GdnHCl, Fluorescence, MOPS 50 mM
[11] = Hordeum vulgare, pH 7.4, 25 °C, GdnHCl, CD, Tris 50 mM

B1: Cyclin-dependent kinase 4 inhibitor D wild type, P55273 (protein)
chain: MLLEEVRAGDRLSGAAARGDVQEVRRLLHRELVHPDALNRFGKTALQVMMFGSTAIALELLKQGASPNVQDTSGTSPVHDAARTGFLDTLKVLVEHGADVNVPDGTGALPIHLAVQEGHTAVVSFLAAESDLHRRDARGLTPLELALQRGAQDLVDILQGHMVAPL
denaturant midpoint (higher = more stable) (Homo sapiens, pH 7.5, 15 °C, Urea, CD, Na-phospahate 20 mM, reversible: yes): 2.9 M | Tm (Homo sapiens, pH 7.5, Thermal, CD, sodium phosphate 20 mM, reversible: yes): 51.9 °C

B2: Apolipoprotein C-I wild type, P02654 (protein)
chain: MRLFLSLPVLVVVLSIVLEGPAPAQGTPDVSSALDKLKEFGNTLEDKARELISRIKQSELSAKMREWFSETFQKVKEKLKIDS
denaturant m value [1]: 3.7 kcal/mol/M | denaturant midpoint (higher = more stable) [1]: 0.85 M | unfolding free energy [1]: 2.8 kcal/mol | unfolding free energy (Homo sapiens, pH 7.5, 25 °C, GdnHCl, CD, Na2HPO4 5 mM, transition: 2, reversible: No): 1.8 kcal/mol | Tm (Homo sapiens, pH 7.8, Thermal, CD, Sodium phosphate 5 mM, reversible: yes): 51 °C

B3: Ig gamma-1 chain C region secreted form wild type, P01868 (protein)
chain: AKTTPPSVYPLAPGSAAQTNSMVTLGCLVKGYFPEPVTVTWNSGSLSSGVHTFPAVLQSDLYTLSSSVTVPSSPRPSETVTCNVAHPASSTKVDKKIVPRDCGCKPCICTVPEVSSVFIFPPKPKDVLTITLTPKVTCVVVDISKDDPEVQFSWFVDDVEVHTAQTQPREEQFNSTFRSVSELPIMHQDWLNGKEFKCRVNSAAFPAPIEKTISKTKGRPKAPQVYTIPPPKEQMAKDKVSLTCMITDFFPEDITVEWQWNGQPAENYKNTQPIMNTNGSYFVYSKLNVQKSNWEAGNTFTCSVLHEGLHNHHTEKSLSHSPGK
Tm [2]: 69.3 °C | unfolding enthalpy (calorimetric) [2]: 84 kcal/mol | Tm [3]: 69.5 °C | unfolding enthalpy (calorimetric) [3]: 86.6 kcal/mol | Tm [4]: 70.2 °C | unfolding enthalpy (calorimetric) [4]: 174 kcal/mol

B4: Superoxide dismutase [Mn], mitochondrial wild type, P04179 (protein)
chain: MLSRAVCGTSRQLAPVLGYLGSRQKHSLPDLPYDYGALEPHINAQIMQLHHSKHHAAYVNNLNVTEEKYQEALAKGDVTAQIALQPALKFNGGGHINHSIFWTNLSPNGGGEPKGELLEAIKRDFGSFDKFKEKLTAASVGVQGSGWGWLGFNKERGHLQIAACPNQDPLQGTTGLIPLLGIDVWEHAYYLQYKNVRPDYLKAIWNVINWENVTERYMACKK
Tm [5]: 70 °C | unfolding enthalpy (calorimetric) [5]: 142 kcal/mol

B5: Annexin A5 wild type, P08758 (protein)
chain: MAQVLRGTVTDFPGFDERADAETLRKAMKGLGTDEESILTLLTSRSNAQRQEISAAFKTLFGRDLLDDLKSELTGKFEKLIVALMKPSRLYDAYELKHALKGAGTNEKVLTEIIASRTPEELRAIKQVYEEEYGSSLEDDVVGDTSGYYQRMLVVLLQANRDPDAGIDEAQVEQDAQALFQAGELKWGTDEEKFITIFGTRSVSHLRKVFDKYMTISGFQIEETIDRETSGNLEQLLLAVVKSIRSIPAYLAETLYYAMKGAGTDDHTLIRVMVSRSEIDLFNIRKEFRKNFATSLYSMIKGDTSGDYKKALLLLCGEDD
Tm [6]: 51.9 °C | unfolding enthalpy (van 't Hoff) [6]: 166 kcal/mol

B6: wild type, Q40059 (protein)
chain: MSSMEKKPEGVNIGAGDRQNQKTEWPELVGKSVEEAKKVILQDKPAAQIIVLPVGTIVTMEYRIDRVRLFVDRLDNIAQVPRVG
Tm (Hordeum vulgare, pH 4.15, Thermal, CD, acetate 10 mM, reversible: no): 74.3 °C | denaturant m value [7]: 1.76 kcal/mol/M | denaturant midpoint (higher = more stable) [7]: 4.05 M | unfolding free energy [7]: 7.16 kcal/mol | denaturant m value [8]: 1.96 kcal/mol/M and 2.01 kcal/mol/M | unfolding free energy [8]: 7.41 kcal/mol and 7.27 kcal/mol and 7.22 kcal/mol

B7: Subtilisin-chymotrypsin inhibitor-2A wild type, P01053 (protein)
chain: B6 chain with M4V, I13T, Q19H, Q21L, A46E, R73K
unfolding free energy (Hordeum vulgare, pH 4.2, 50 °C, GdnHCl, Fluorescence, Sodium acetate 50 mM, reversible: yes): 5.5 kcal/mol | unfolding free energy (Hordeum vulgare, pH 6.3, 17 °C, GdnHCl, Fluorescence, MES 10 mM, reversible: yes): 7.47 kcal/mol | unfolding free energy (Hordeum vulgare, pH 6.3, 21 °C, GdnHCl, Fluorescence, MES 10 mM, reversible: yes): 7.28 kcal/mol | unfolding free energy (Hordeum vulgare, pH 6.3, 25 °C, GdnHCl, Fluorescence, MES 10 mM, reversible: yes): 7.04 kcal/mol | unfolding free energy (Hordeum vulgare, pH 6.3, 29 °C, GdnHCl, Fluorescence, MES 10 mM, reversible: yes): 6.76 kcal/mol | unfolding free energy (Hordeum vulgare, pH 6.3, 32 °C, GdnHCl, Fluorescence, MES 10 mM, reversible: yes): 6.52 kcal/mol | denaturant m value [9]: 1.77 kcal/mol/M | denaturant midpoint (higher = more stable) [9]: 3.97 M | unfolding free energy [9]: 7.04 kcal/mol | denaturant m value [10]: 1.92 kcal/mol/M | unfolding free energy [10]: 7.05 kcal/mol | denaturant m value [11]: 1.82 kcal/mol/M | denaturant midpoint (higher = more stable) [11]: 4.29 M | unfolding free energy [11]: 7.81 kcal/mol
